# Laboratory results as given in patent US20250242034A1, “PHOSPHORAMIDATE-BASED PSMA-TARGETED SMALL-MOLECULE DRUG CONJUGATES” (priority 2022, published 2025).
# Read-outs that look alike come from different tables or passages of the source. Square brackets hold non-standard residues; d marks the D form. Peptide text beside a SMILES is read from it. * marks the point of attachment. Dolaproine = CO[C@@H]([C@@H]1CCCN1)[C@@H](C)C(=O)O; Dil = CC[C@H](C)[C@H](NC)[C@@H](CC(=O)O)OC; X1 = C[C@@H](N*)[C@@H](O)c1ccccc1; NMeV = CN[C@H](C(=O)O)C(C)C
# Experiments:
# PSMA = PSMA (Homo sapiens, UniProt Q04609); test: PSMA binding (IC50 values for PSMA)
# [1] = test system: PSMA+ PC3-PIP tumor cells; assay type: in vivo, NCr nude mice; settings: n=8; for time until animals reached end point criteria / end point tumor burden after first administration: IV once weekly for 6 weeks, SMDCs 0.8 mg/kg, MMAE 0.2 mg/kg
# Description: Efficacy Study Design: NCr nude mice (age 6-8 weeks) injected with 1×10^6 PC3 PiP cells (1:1 in saline with Matrigel, 100 μL total volume) subcutaneously to right rear flank. Tumors were allowed to grow until approximate size of 100 mm^3 (roughly 2-3 weeks) before starting compound treatments. Treatment consisted of an injection of the appropriate compound to the lateral tail vein (100 μL bolus) once a week for the first 6 weeks of the study. Efficacy treatment groups were 8 animals each of: 1) saline, 2) MMAE alone, 0.2 mg/kg (molar equivalent to the MMAE conjugated to the small molecules), 3) CTT1700 (structure noted below), 0.8 mg/kg, 4) 1, 0.8 mg/kg, and 5) 2, 0.8 mg/kg. Tumor sizes were measured twice weekly for the duration of the study and mortality noted for survival curves. Animals were sacrificed if tumor condition reached IACUC standards for euthanasia (tumor burden of >1.5 cm in any axis, ulceration, >20% weight loss). Blood draws were taken via superficial temporal vein at 0, 4, 7 and 10 weeks and CBCs with 3-part differential measured.
# (§1) To evaluate efficacy of SMDCs 1 and 2 in preclinical models of human PCa, we employed xenograft tumor models derived from PSMA+ PC3-PIP tumor cells implanted subcutaneously in the right rear flank of NCr nude mice (6-8 weeks old). […] Tumor sizes were measured twice weekly for the duration of the study and mortality noted for survival curves for 90 days after first administration. Animals were euthanized if tumor or mouse condition reached IACUC standards for euthanasia (tumor burden of >1.5 cm in any axis, ulceration, >20% mouse weight loss). Blood draws were taken via superficial temporal vein at 0, 4, 7 and 10 weeks, and complete blood count (CBC) analysis was performed with a 3-part differential measurement.
# [2] = Compound residence study (PK): plasma and tissue levels of parent drug and MMAE by LC-MS/MS; assay type: in vivo, NCr nude mice; settings: for Tumor AUC0-t, MMAE / Tumor Cmax, MMAE / Tumor AUC0-t, Parent / Tumor Cmax, Parent: PC3-PiP tumor; for Tumor AUC0-t, MMAE / Tumor Cmax, MMAE / Kidney AUC0-t, MMAE / Kidney Cmax, MMAE / Plasma % extrapolated, MMAE: analyte MMAE payload; for parent drug concentrations in tissues other than tumor: 0.8 mg/kg; for fraction of drug that is estimated to release MMAE: calculated from apparent MMAE formation clearance and reported MMAE clearance
# Description: Compound Residence study design (PK Studies): Three volumes of PBS, pH 7.4, were added to tumor, kidney, and lacrimal tissues and 10 volumes of PBS, pH 7.4, were added to prostate tissue samples. Tumor, kidney, and prostate samples were homogenized with a homogenizer, and lacrimal tissues were sonicated with a sonicator. Twenty five microliters of plasma or tissue homogenate was added to a microcentrifuge tube followed by 10 μL of internal standard solution and 100 μL of 5 mM ammonium bicarbonate and acetonitrile (25:75 v,v). The sample was then vortexed at a high setting for 1 minute and centrifuged at 17,200×g for 10 minutes. The resultant supernatant was pipetted into an HPLC vial and 10-20 μL was injected into the LC-MS/MS system. […] [^2H8]-MMAE was used as the internal standard for MMAE. […] A SCIEX 6500+ Qtrap LC-MS/MS system consisting of an Agilent (Palo Alto, CA 94036) 1290 HPLC and Sciex 6500+ QTrap mass detector was used for quantitation of MMAE concentrations. The chromatography consisted of a gradient using of 5 mM ammonium bicarbonate and acetonitrile and the separation was achieved using a Phenomenex (Torrance, CA 90501) Kinetex column (2×50 mm, 2.6 μm). […] Standard curves were linear from 10-10,000 ng/mL for CTT1700, SMDCs 2 and 1 while the MMAE standard curves were linear from 0.01 to 10 ng/mL. A 1/y^2 weighted linear regression was used for all standard curves.
# PK parameters were estimated using standard noncompartmental methods with Phoenix WinNonlin (Certara, Princeton, NJ). Plasma parent drugs were derived using the IV bolus approach, while all other data were derived using the extravascular approach.
# as §1, with “measurement. For biodistribution studies, blood samples were obtained at 1 and 6 h post a single 0.8 mg/kg dose, followed by euthanasia at 24, 72 and 120 h; LC-MS/MS analysis was performed to determine concentrations of SMDC and MMAE in plasma, tumor, lacrimal gland, kidney, and prostate samples.” for “measurement.”
# [3] = reported pharmacokinetics of MMAE dosed directly; assay type: in vivo; settings: corresponds to 60 mL/h
# [4] = cited from earlier work
# [5] = 0.8 mg/kg IV once weekly for 6 weeks
# [6] = IV 0.8 mg/kg, analyte parent drug
# [7] = NCr nude, mouse, IV 0.8 mg/kg, plasma, analyte parent drug, read-out: Plasma Cmax, Parent
# [8] = IV 0.8 mg/kg, kidney, analyte parent drug
# [9] = IV 0.8 mg/kg, plasma, analyte parent drug
# Sequence of PSMA (Q04609 whole entry): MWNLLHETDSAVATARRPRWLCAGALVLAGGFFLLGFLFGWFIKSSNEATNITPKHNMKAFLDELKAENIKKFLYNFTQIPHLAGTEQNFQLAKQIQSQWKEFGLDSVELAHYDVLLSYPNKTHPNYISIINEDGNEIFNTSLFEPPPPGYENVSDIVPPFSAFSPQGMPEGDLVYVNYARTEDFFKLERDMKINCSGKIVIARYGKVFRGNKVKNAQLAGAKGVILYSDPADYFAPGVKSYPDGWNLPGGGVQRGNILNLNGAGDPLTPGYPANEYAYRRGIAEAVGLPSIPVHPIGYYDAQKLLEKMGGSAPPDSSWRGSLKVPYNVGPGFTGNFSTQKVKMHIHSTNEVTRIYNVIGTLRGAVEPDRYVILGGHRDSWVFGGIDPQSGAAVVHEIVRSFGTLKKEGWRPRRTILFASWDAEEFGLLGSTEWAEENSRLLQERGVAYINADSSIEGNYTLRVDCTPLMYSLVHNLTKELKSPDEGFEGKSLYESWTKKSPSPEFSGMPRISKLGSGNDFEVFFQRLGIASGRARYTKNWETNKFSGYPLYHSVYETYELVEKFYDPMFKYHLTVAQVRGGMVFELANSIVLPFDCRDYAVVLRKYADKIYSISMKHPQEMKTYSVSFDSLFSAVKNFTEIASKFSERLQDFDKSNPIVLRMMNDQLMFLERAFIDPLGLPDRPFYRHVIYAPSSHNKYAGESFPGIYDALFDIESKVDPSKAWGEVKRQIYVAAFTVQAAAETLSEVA
structure (smiles),measurement,setting,value
CC[C@H](C)[C@@H]([C@@H](CC(=O)N1CCC[C@H]1[C@H](OC)[C@@H](C)C(=O)N[C@H](C)[C@@H](O)c1ccccc1)OC)N(C)C(=O)[C@@H](NC(=O)[C@H](C(C)C)N(C)C(=O)OCc1ccc(NC(=O)[C@H](CCCNC(N)=O)NC(=O)[C@@H](NC(=O)c2ccc(Cn3nnc4c3-c3ccccc3CN(C(=O)CCC(=O)NCCOCCOCCOCCOCCC(=O)N[C@@H](CCC(=O)NCCCCCC(=O)N[C@@H](CCC(=O)N[C@@H](CCCOP(=O)(O)N[C@@H](CCC(=O)O)C(=O)O)C(=O)O)C(=O)O)C(=O)N[C@H](CCCCNC(=O)CCCc3ccc(I)cc3)C(=O)O)c3ccccc3-4)cc2)C(C)C)cc1)C(C)C [SMDC 1],IC50,PSMA; read-out: IC50 for PSMA,24.1 ± 2.1 nM
same,survival 90 days after initial dosing,[1]; [5],Six of eight
same,therapeutic efficacy (in words),[1]; [5],dramatic efficacy compared to controls
same,tumor growth response,[1]; [5],"tumor regression was observed following initiation of administration up until 2 weeks after the last dose, with subsequent slow tumor growth"
same,"Tumor AUC0-t, MMAE",[2]; IV 0.8 mg/kg,1652 ng·days/g
same,"Tumor Cmax, MMAE",[2]; IV 0.8 mg/kg,509 ng/g
same,"Tumor AUC0-t, Parent",[2]; [6],475 ng·days/g
same,"Tumor Cmax, Parent",[2]; [6],122 ng/g
same,parent drug concentrations in tissues other than tumor,[2]; [6],could not be quantified in any other tissue other than the tumor
same,parent drug concentrations in tissues other than tumor,"[2]; IV 0.8 mg/kg, analyte parent drug, listed as VC",VC concentrations in all tissues other than tumor were below the LLOQ.
same,"Kidney AUC0-t, MMAE","[2]; IV 0.8 mg/kg, kidney",55.5 ng·days/g
same,"Kidney Cmax, MMAE","[2]; IV 0.8 mg/kg, kidney",30.6 ng/g
same,distribution volume of parent SMDC,"[2]; IV 0.8 mg/kg, plasma",0.106 L/kg
same,"Plasma % extrapolated, MMAE","[2]; IV 0.8 mg/kg, plasma AUC",2.9%
same,absolute tumor MMAE exposure compared to CTT1700,"[2]; IV 0.8 mg/kg, tumor, higher than control SMDC with non-degradable linker",approximately 6 fold
same,Cmax,[2]; [7],< 10 ng/mL
same,fraction of drug that is estimated to release MMAE,[2],38%
"CC[C@H](C)[C@@H]([C@@H](CC(=O)N1CCC[C@H]1[C@H](OC)[C@@H](C)C(=O)N[C@H](C)[C@@H](O)c1ccccc1)OC)N(C)C(=O)[C@@H](NC(=O)[C@@H](NC)C(C)C)C(C)C [MMAE, Monomethyl auristatin E] (H-[NMeV]V[Dil][Dolaproine]-X1)",time until animals reached end point criteria / end point tumor burden after first administration,[1],≤ 6 weeks
same,"reported plasma clearance of MMAE, converted",[3],47 L/day/kg
same,t1/2 reported for MMAE when dosed directly,[4]; MMAE dosed directly,4.1 h
same,reported plasma clearance of MMAE,[4]; in vivo,60 mL/h
CC[C@H](C)[C@@H]([C@@H](CC(=O)N1CCC[C@H]1[C@H](OC)[C@@H](C)C(=O)N[C@H](C)[C@@H](O)c1ccccc1)OC)N(C)C(=O)[C@@H](NC(=O)[C@H](C(C)C)N(C)C(=O)OCc1ccc(OC(=O)N(C)CCN(C)P(=O)(O)OCC[C@H](NC(=O)c2ccc(Cn3nnc4c3-c3ccccc3CN(C(=O)CCC(=O)NCCOCCOCCOCCOCCC(=O)N[C@@H](CCC(=O)NCCCCCC(=O)N[C@@H](CCC(=O)N[C@@H](CCCOP(=O)(O)N[C@@H](CCC(=O)O)C(=O)O)C(=O)O)C(=O)O)C(=O)N[C@H](CCCCNC(=O)CCCc3ccc(I)cc3)C(=O)O)c3ccccc3-4)cc2)C(=O)O)cc1)C(C)C [SMDC 2],IC50,PSMA,1.74 ± 0.14 nM
"CC[C@H](C)[C@@H]([C@@H](CC(=O)N1CCC[C@H]1[C@H](OC)[C@@H](C)C(=O)N[C@H](C)[C@@H](O)c1ccccc1)OC)N(C)C(=O)[C@@H](NC(=O)[C@H](C(C)C)N(C)P(=O)(O)OCC[C@H](NC(=O)c1ccc(Cn2nnc3c2-c2ccccc2CN(C(=O)CCC(=O)NCCOCCOCCOCCOCCC(=O)N[C@@H](CCC(=O)NCCCCCC(=O)N[C@@H](CCC(=O)N[C@@H](CCCOP(=O)(O)N[C@@H](CCC(=O)O)C(=O)O)C(=O)O)C(=O)O)C(=O)N[C@H](CCCCNC(=O)CCCc2ccc(I)cc2)C(=O)O)c2ccccc2-3)cc1)C(=O)O)C(C)C [CTT1700, reference compound]",therapeutic efficacy (in words),[1]; [5],moderate efficacy
same,time until animals reached end point criteria / end point tumor burden after first administration,[1],≤ 12 weeks
same,"Tumor AUC0-t, MMAE",[2]; IV 0.8 mg/kg,262 ng·days/g
same,"Tumor Cmax, MMAE",[2]; IV 0.8 mg/kg,98.7 ng/g
same,"Tumor AUC0-t, Parent",[2]; [6],483 ng·days/g
same,"Tumor Cmax, Parent",[2]; [6],194 ng/g
same,"Kidney AUC0-t, MMAE","[2]; IV 0.8 mg/kg, kidney",4.00 ng·days/g
same,"Kidney Cmax, MMAE","[2]; IV 0.8 mg/kg, kidney",1.82 ng/g
same,"Kidney AUC0-t, Parent",[2]; [8],685 ng·days/g
same,"Kidney Cmax, Parent",[2]; [8],400 ng/g
same,"Lacrimal AUC0-t, Parent","[2]; IV 0.8 mg/kg, lacrimal gland, analyte parent drug",220 ng·days/g
same,"Plasma % extrapolated, MMAE","[2]; IV 0.8 mg/kg, plasma AUC",28%
same,"Plasma % extrapolated, Parent","[2]; IV 0.8 mg/kg, plasma AUC, analyte parent drug",1.9%
same,"Plasma AUC0-inf, Parent",[2]; [9],6566 ng·days/mL
same,"Plasma AUC0-t, Parent",[2]; [9],6442 ng·days/mL
same,"Prostate AUC0-t, Parent","[2]; IV 0.8 mg/kg, prostate, analyte parent drug",647 ng·days/g
same,Kp,"[2]; NCr nude, mouse, kidney/plasma, IV 0.8 mg/kg, analyte parent drug, read-out: Kp (kidney/plasma), Parent",0.106
same,Kp,"[2]; NCr nude, mouse, lacrimal gland/plasma, IV 0.8 mg/kg, analyte parent drug, read-out: Kp (Lacrimal/plasma), Parent",0.0342
same,Kp,"[2]; NCr nude, mouse, prostate/plasma, IV 0.8 mg/kg, analyte parent drug, read-out: Kp (prostate/plasma), Parent",0.1
same,Kp,"[2]; NCr nude, mouse, tumor/plasma, IV 0.8 mg/kg, analyte parent drug, read-out: Kp (tumor/plasma), Parent",0.075
same,Cmax,"[2]; NCr nude, mouse, IV 0.8 mg/kg, lacrimal gland, analyte parent drug, read-out: Lacrimal Cmax, Parent",71.9 ng/g
same,Tmax,"[2]; NCr nude, mouse, IV 0.8 mg/kg, plasma, analyte parent drug",1 h
same,clearance,"[2]; NCr nude, mouse, IV 0.8 mg/kg, plasma, analyte parent drug, read-out: Plasma Cl, Parent (converted)",5.08 mL/h/kg
same,Cmax,[2]; [7],7020 ng/mL
same,Vd,"[2]; NCr nude, mouse, IV 0.8 mg/kg, plasma, analyte parent drug, read-out: Plasma Vss, Parent",0.136 L/kg
same,half-life,"[2]; NCr nude, mouse, IV 0.8 mg/kg, plasma, analyte parent drug, read-out: Plasma t1/2, Parent (converted)",1380 min
same,Cmax,"[2]; NCr nude, mouse, IV 0.8 mg/kg, prostate, analyte parent drug, read-out: Prostate Cmax, Parent",280 ng/g
same,fraction of drug that is estimated to release MMAE,[2],1%
